These results are taken from US20240270821A1, “GIP/GLP1/GCG TRI-RECEPTOR AGONISTS AND USES THEREOF” (priority 2023, published 2024).

What all share (test): cell-based or functional assay
One assay addresses hGLP-1R (Homo sapiens, UniProt P43220).
In assay [1] the target is T1, human GIP receptor (human) (UniProt P48546).
T1 sequence (looked up): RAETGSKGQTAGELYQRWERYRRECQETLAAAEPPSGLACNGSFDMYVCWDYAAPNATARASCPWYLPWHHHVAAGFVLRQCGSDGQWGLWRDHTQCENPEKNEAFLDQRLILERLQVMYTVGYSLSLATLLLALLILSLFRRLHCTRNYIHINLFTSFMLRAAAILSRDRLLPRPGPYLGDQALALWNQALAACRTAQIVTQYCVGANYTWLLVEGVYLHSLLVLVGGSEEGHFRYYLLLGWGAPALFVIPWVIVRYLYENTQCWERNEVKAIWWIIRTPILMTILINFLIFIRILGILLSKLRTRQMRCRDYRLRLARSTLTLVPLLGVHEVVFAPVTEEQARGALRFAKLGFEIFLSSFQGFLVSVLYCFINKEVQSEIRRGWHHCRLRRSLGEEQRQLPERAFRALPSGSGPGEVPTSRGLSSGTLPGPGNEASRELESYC

Assay [2] deals with human glucagon receptor (human) (UniProt P47871).
human glucagon receptor (human), sequence (P47871 26-477): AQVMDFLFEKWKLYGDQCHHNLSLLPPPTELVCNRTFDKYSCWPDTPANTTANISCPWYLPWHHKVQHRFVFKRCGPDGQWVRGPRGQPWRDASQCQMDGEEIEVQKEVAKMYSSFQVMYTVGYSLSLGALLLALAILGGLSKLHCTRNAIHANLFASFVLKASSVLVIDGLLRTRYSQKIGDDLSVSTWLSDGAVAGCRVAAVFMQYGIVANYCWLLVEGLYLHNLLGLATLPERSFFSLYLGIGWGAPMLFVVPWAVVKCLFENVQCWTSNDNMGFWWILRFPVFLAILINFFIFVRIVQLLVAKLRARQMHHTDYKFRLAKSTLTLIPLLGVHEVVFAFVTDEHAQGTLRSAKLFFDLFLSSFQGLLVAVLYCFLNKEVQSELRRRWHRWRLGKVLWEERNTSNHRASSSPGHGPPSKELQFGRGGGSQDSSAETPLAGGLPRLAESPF

hGLP-1R, sequence (P43220 24-463): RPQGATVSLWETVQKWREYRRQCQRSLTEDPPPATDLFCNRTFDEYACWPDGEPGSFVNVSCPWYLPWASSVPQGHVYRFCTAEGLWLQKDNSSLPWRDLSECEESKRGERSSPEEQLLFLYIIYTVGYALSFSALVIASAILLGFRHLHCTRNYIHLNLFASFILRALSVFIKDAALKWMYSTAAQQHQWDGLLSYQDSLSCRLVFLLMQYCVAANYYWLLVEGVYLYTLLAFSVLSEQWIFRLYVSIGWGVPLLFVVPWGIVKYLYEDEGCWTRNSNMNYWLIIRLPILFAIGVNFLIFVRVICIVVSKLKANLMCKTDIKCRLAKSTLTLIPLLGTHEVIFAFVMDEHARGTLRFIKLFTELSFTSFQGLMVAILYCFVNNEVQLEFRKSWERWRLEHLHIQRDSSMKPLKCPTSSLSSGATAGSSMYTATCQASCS

B1: Example 784 (peptide)
chain: YXQGTFTSDFSQXLDKKAQXAFIEYLLEXGPSSGAPPPSGS
modifications: synthetic construct; SITE 2: note = 2-Aminoisobutyric Acid; SITE 13: note = alpha-methyl-leucine; SITE 17: note = Lysine is chemically modified through conjugation of the epsilon-amino group of the Lysine side chain with (gamma-Glu)2-CO-(CH2)16-CO2H; SITE 20: note = 2-Aminoisobutyric Acid; SITE 29:
Consider B1, for which the figures for the Relative cAMP EC50 (in the assay with hGLP-1R; in assay [1]; in assay [2]) were 2.09 nM, 0.0587 nM and 5.21 nM, respectively. For the same molecule, the figures for the cAMP Rel EC50, nM (1% HSA) (in the assay with hGLP-1R; in assay [1]; in assay [2]) were 284 nM, 11.8 nM and 711 nM, respectively.

B2: Example 76 (peptide)
chain: YXQGTFTSDFSXXLDKKAQXAFIEYLLAGGPSSGAPPPSGS
modifications: synthetic construct; SITE 2: note = 2-Aminoisobutyric Acid; SITE 12: note = L-ornithine; SITE 13: note = alpha-methyl-leucine; SITE 17: note = Lysine is chemically modified through conjugation of the epsilon-amino group of the Lysine side chain with (2-[2-(2-Amino-ethoxy)-ethoxy]-acetyl)-(gamma-Glu)
As for B2, the Relative cAMP EC50 with hGLP-1R was 2.25 nM; in assay [1], 0.196 nM; in assay [2] it was 11.1 nM. The cAMP Rel EC50, nM (in the presence of 1% HSA) amounted to 436 nM with hGLP-1R, 45.5 nM in assay [1] and 2240 nM in assay [2].

B3: Example 789 (peptide)
chain: YXQGTFTSDFSQXLDKKAQXAFIEYLLEXGESSGAPPPSGE
modifications: synthetic construct; SITE 2: note = 2-Aminoisobutyric Acid; SITE 13: note = alpha-methyl-leucine; SITE 17: note = Lysine is chemically modified through conjugation of the epsilon-amino group of the Lysine side chain with (2-[2-(2-Amino-ethoxy)-ethoxy]-acetyl)-(gamma-Glu)-CO-(CH2) 16-CO2H; SITE 20: n
For the molecule B3, the results for the Relative cAMP EC50 (with hGLP-1R; in assay [1]; in assay [2]) were 2.74 nM, 0.101 nM and 3.3 nM, respectively. Further, the cAMP Rel EC50, nM (1% HSA) with hGLP-1R was 379 nM; in assay [1], 20.4 nM; in assay [2], 1200 nM.

B4: Example 797 (peptide)
chain: YXQGTFTSDFSKXLDKKAQXAFIEYLIEXGPSSGAPPPSGS
modifications: synthetic construct; SITE 2: note = 2-Aminoisobutyric Acid; SITE 13: note = alpha-methyl-leucine; SITE 17: note = Lysine is chemically modified through conjugation of the epsilon-amino group of the Lysine side chain with (2-[2-(2-Amino-ethoxy)-ethoxy]-acetyl)-(gamma-Glu)-CO-(CH2) 16-CO2H; SITE 20: n
Consider B4, for which the Relative cAMP EC50 with hGLP-1R stood at 0.449 nM; in assay [1], 0.0781 nM; in assay [2], 3.78 nM. Also, the cAMP Rel EC50 (1% HSA) in the assay with hGLP-1R is 102 nM; in assay [1], 16.7 nM; in assay [2] it was 963 nM.

B5: Example 796 (peptide)
chain: YXQGTFTSDFSXXLDKKAQXAFIEYLIEXGPSSGAPPPSGS
modifications: synthetic construct; SITE 2: note = 2-Aminoisobutyric Acid; SITE 12: note = L-ornithine; SITE 13: note = alpha-methyl-leucine; SITE 17: note = Lysine is chemically modified through conjugation of the epsilon-amino group of the Lysine side chain with (2-[2-(2-Amino-ethoxy)-ethoxy]-acetyl)-(gamma-Glu)
On to B5, for which the Relative cAMP EC50 with hGLP-1R was found to be 0.602 nM; in assay [1], 0.098 nM; in assay [2] it was 5.3 nM. The cAMP Rel EC50, nM (1% HSA) stood at 125 nM with hGLP-1R, 17.5 nM in assay [1] and 1000 nM in assay [2].

B6: Example 787 (peptide)
chain: YXQGTFTSDFSQXLDKKAQXAFIEYLLEXGESSGAPPPSGS
modifications: synthetic construct; SITE 2: note = 2-Aminoisobutyric Acid; SITE 13: note = alpha-methyl-leucine; SITE 17: note = Lysine is chemically modified through conjugation of the epsilon-amino group of the Lysine side chain with (2-[2-(2-Amino-ethoxy)-ethoxy]-acetyl)2-(gamma-Glu)-CO-(CH2 )16-CO2H; SITE 20:
Regarding B6, the results for the Relative cAMP EC50 (with hGLP-1R; in assay [1]; in assay [2]) were 2.55 nM, 0.0675 nM and 7.81 nM, respectively. For the same molecule, the figures for the cAMP Rel EC50, nM (1% HSA) (with hGLP-1R; in assay [1]; in assay [2]) were 382 nM, 18.6 nM and 2060 nM, respectively.

B7: Example 794 (peptide)
chain: YXQGTFTSDFSRXLDKKAQXAFIEYLIEGGESSGAPPPSGS
modifications: synthetic construct; SITE 2: note = 2-Aminoisobutyric Acid; SITE 13: note = alpha-methyl-leucine; SITE 17: note = Lysine is chemically modified through conjugation of the epsilon-amino group of the Lysine side chain with (2-[2-(2-Amino-ethoxy)-ethoxy]-acetyl)-(gamma-Glu)-CO-(CH2) 16-CO2H; SITE 20: n
With B7, the Relative cAMP EC50 was determined as 1.26 nM in the assay with hGLP-1R, 0.468 nM in assay [1] and 1.21 nM in assay [2]. Moreover, the cAMP Rel EC50, nM (1% HSA) with hGLP-1R stood at 233 nM; in assay [1], 68.4 nM; in assay [2], 297 nM.

B8: Example 773 (peptide)
chain: YXQGTFTSDFSQXLDKKAQXAFIEYLLAGGPSSGEPPPSGS
modifications: synthetic construct; SITE 2: note = 2-Aminoisobutyric Acid; SITE 13: note = alpha-methyl-leucine; SITE 17: note = Lysine is chemically modified through conjugation of the epsilon-amino group of the Lysine side chain with (2-[2-(2-Amino-ethoxy)-ethoxy]-acetyl)-(gamma-Glu)-CO-(CH2) 16-CO2H; SITE 20: n
For B8, the values for the Relative cAMP EC50 (in the assay with hGLP-1R; in assay [1]; in assay [2]) were 1.97 nM, 0.0974 nM and 15.3 nM, respectively. Besides, the cAMP Rel EC50, nM (1% HSA) in the assay with hGLP-1R is 241 nM; in assay [1], 26.3 nM; in assay [2], 2260 nM.

B9: Example 790 (peptide)
chain: YXQGTFTSDFSQXLDKKAQXAFIEYLLEXGESSGEPPPSGE
modifications: synthetic construct; SITE 2: note = 2-Aminoisobutyric Acid; SITE 13: note = alpha-methyl-leucine; SITE 17: note = Lysine is chemically modified through conjugation of the epsilon-amino group of the Lysine side chain with (2-[2-(2-Amino-ethoxy)-ethoxy]-acetyl)-(gamma-Glu)-CO-(CH2) 16-CO2H; SITE 20: n
In the case of B9, the Relative cAMP EC50 in the assay with hGLP-1R was 3.19 nM; in assay [1], 0.131 nM; in assay [2], 3.87 nM. The results for the cAMP Rel EC50, nM (1% HSA) (in the assay with hGLP-1R; in assay [1]; in assay [2]) were 858 nM, 34.1 nM and 1200 nM, respectively.

B10: Example 801 (peptide)
chain: YXQGTFTSDXSKXLDKKAQXAFIEYLIEXGPSSGAPPPSGS
modifications: synthetic construct; SITE 2: note = 2-Aminoisobutyric Acid; SITE 10: note = 3-(4-Pyridyl)-L-alanine; SITE 13: note = alpha-methyl-leucine; SITE 17: note = Lysine is chemically modified through conjugation of the epsilon-amino group of the Lysine side chain with (2-[2-(2-Amino-ethoxy)-ethoxy]-acetyl)
Regarding B10, the Relative cAMP EC50 was 0.938 nM in the assay with hGLP-1R, 0.147 nM in assay [1] and 5.51 nM in assay [2]. Also, the cAMP Rel EC50 (1% HSA) with hGLP-1R is 133 nM; in assay [1] it was 18.1 nM; in assay [2] it was 1200 nM.

B11: Example 804 (peptide)
chain: YXQGTFTSDFSXXLDKKAQXAFIEYLIEXSPSSGAPPPSGS
modifications: synthetic construct; SITE 2: note = 2-Aminoisobutyric Acid; SITE 12: note = L-ornithine; SITE 13: note = alpha-methyl-leucine; SITE 17: note = Lysine is chemically modified through conjugation of the epsilon-amino group of the Lysine side chain with (2-[2-(2-Amino-ethoxy)-ethoxy]-acetyl)-(gamma-Glu)
Consider B11, for which the Relative cAMP EC50 amounted to 0.915 nM with hGLP-1R, 0.0751 nM in assay [1] and 11.5 nM in assay [2]. Also, the results for the cAMP Rel EC50 (1% HSA) (in the assay with hGLP-1R; in assay [1]; in assay [2]) were 161 nM, 17.6 nM and 2310 nM, respectively.
